Results from patent US20230391887A1.

Assays:
[1] = target: meditope-enabled Trastuzumab v2.0 (83E meditope enabled antibody trastuzumab); experiment: SPR, antibody immobilized at 150 RU, 37 C, 1:1 fit
[2] = target: meditope-enabled Trastuzumab v2.0 (83E meditope enabled antibody trastuzumab); experiment: SPR, antibody immobilized at 750 RU, 37 C, 1:1 fit
[3] = target: meditope-enabled Trastuzumab v2.0 (83E meditope enabled antibody trastuzumab); experiment: SPR, antibody immobilized at 1500 RU, 37 C
[4] = target: meditope-enabled Trastuzumab v2.0 (83E meditope enabled antibody trastuzumab); experiment: SPR, antibody immobilized at 1500 RU, 37 C, 1:1 fit

Kd [1]: 51.2 nM
koff [1]: 0.00045 s⁻¹
kon [1]: 8700 M⁻¹ s⁻¹
t1/2 [1]: 24 min
Kd [2]: 14 nM
koff [2]: 0.00014 s⁻¹
kon [2]: 10000 M⁻¹ s⁻¹
t1/2 [2]: 1.3 h
fold improvement of half-life against the monovalent meditope [3]: > 30 fold
half-life [3]: 145 min
Kd [4]: 8.2 nM
koff [4]: 8e-05 s⁻¹
kon [4]: 9800 M⁻¹ s⁻¹
t1/2 [4]: 2.4 h
B1: trivalent meditope (TVM) (protein)
chain: GGSAAPSSAPSPSAPCQFDLSTRRLSCGGASPAASPSAPSSPAPKAPSAAPSSAPSPSAPGGCQFDLSTRRLSCGGASPAASPSAPSSPAPKAPSAAPSSAPSPSAPGGCQFDLSTRRLSCGGSPSAPSSPSSPKLPETG
